Experimental data published in publication PMC3343046, “Overexpression of the Catalytically Impaired Taspase1^T234V or Taspase1^D233A Variants Does Not Have a Dominant Negative Effect in T(4;11) Leukemia Cells” (PLoS ONE, 2012).
Substitutions are numbered along the chain they refer to. In names and notes the source's numbering stands.

T1: TaspCyt (GFP-tagged Taspase1 with a C-terminal nuclear export signal) (human, UniProt Q9H6P5 1-420)
T1 construct: Threonine Aspartase 1 (Taspase1), human, 420 aa; open reading frame cloned from MV4;11 and THP-1 cells; Still catalytically active, so probably processed in cells into α- and β-subunits; also called GFP-TaspCyt; pTaspcyt; source: HeLa, transfected, in living cells; not shown: NES (strong nuclear export signal), C-terminal, kept
T1 sequence (looked up): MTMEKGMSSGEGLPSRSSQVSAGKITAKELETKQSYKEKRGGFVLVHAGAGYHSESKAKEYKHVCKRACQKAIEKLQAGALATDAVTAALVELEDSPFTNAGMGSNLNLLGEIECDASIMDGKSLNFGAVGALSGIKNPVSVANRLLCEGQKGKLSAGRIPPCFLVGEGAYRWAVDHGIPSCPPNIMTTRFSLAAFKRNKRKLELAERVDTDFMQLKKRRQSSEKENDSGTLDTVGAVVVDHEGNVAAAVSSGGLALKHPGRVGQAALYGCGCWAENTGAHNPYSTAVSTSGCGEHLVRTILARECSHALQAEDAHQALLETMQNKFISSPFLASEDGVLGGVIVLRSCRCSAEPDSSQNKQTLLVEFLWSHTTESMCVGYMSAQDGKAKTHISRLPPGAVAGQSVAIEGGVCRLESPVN

B1: Taspase1-mCherry (wild type) (enzyme, human, UniProt Q9H6P5 1-420, looked up)
chain: T1 sequence (looked up)
notes: Threonine Aspartase 1 (Taspase1), human, 420 aa; open reading frame cloned from MV4;11 and THP-1 cells; The wild-type proenzyme is autoproteolytically processed in cells into α- and β-subunits; also called Tasp-mCherry; Tasp-mCh; source: HeLa, transfected, in living cells
B2: Tasp^D233A-mCherry (enzyme, human, UniProt Q9H6P5 1-420, looked up)
chain: T1 sequence (looked up) with D233A
notes: Threonine Aspartase 1 (Taspase1), human, 420 aa, with Asp233 changed to Ala; Impaired in autoproteolytic cis-cleavage; also called Taspase1^D233A-mCherry; highly attenuated Taspase1 variant; source: HeLa, transfected, in living cells
B3: Tasp^T234V-mCherry (enzyme, human, UniProt Q9H6P5 1-420, looked up)
chain: T1 sequence (looked up) with T234V
notes: Threonine Aspartase 1 (Taspase1), human, 420 aa, with Thr234 changed to Val; Not autoprocessed; stays a proenzyme; also called Taspase1^T234V-mCherry; catalytically dead Taspase1 mutant; source: HeLa, transfected, in living cells

What follows are binders tested against T1, TaspCyt (GFP-tagged Taspase1 with a …) (assay: translocation-based protein interaction assay; living HeLa transfectants, 24 h after transfection; nuclear/nucleolar recruitment of a cytoplasmic fluorescent fusion by a nuclear/nucleolar fusion; fluorescence microscopy, and confocal microscopy with the Manders overlap coefficient R). Settings: partners not purified.

Manders overlap coefficient R | Binder
0.387 | B1
0.394 | B2
0.388 | B3
